The results in this text go back to patent US20240024520A1 (UCB, published 2024).

“And” between values parts separate entries of the source, which are not always exact repeats. Identical values can stand only once. Like-named read-outs stand apart in the source and are kept apart here. Ends that are not written are not given here. * marks the point of attachment. Cam = NC(=O)C* Bounds are passed on as bounds.

As usually defined, the Kd is the free concentration of one partner at which half of the binding sites on the other are occupied at equilibrium, for simple one-to-one binding. Lower therefore signals tighter binding. What is called IC50 is the concentration at which inhibition is half-maximal. Higher therefore signals a need for much substance. Usually Ki stands for the dissociation constant of the complex between target and ligand, obtained from inhibition or displacement. A lower Ki goes with higher affinity. For orientation: koff means a measure of how fast the partners let go of each other. A word on the kon: it is a measure of how fast the partners come together. High values mean fast association, low ones slow association.

For test [1], the target named is T1, human complement component C5 (human, UniProt P01031 19-673; P01031 678-1676).
T1 construct: mature; Mature C5 is a disulphide-linked beta and alpha chain cut from one precursor; Terbium-labelled in the FRET assays, biotinylated in part of the phage ELISA; also called human C5; C5-Tb
T1 sequence (P01031 19-673 limits assumed, chain 1 of 2): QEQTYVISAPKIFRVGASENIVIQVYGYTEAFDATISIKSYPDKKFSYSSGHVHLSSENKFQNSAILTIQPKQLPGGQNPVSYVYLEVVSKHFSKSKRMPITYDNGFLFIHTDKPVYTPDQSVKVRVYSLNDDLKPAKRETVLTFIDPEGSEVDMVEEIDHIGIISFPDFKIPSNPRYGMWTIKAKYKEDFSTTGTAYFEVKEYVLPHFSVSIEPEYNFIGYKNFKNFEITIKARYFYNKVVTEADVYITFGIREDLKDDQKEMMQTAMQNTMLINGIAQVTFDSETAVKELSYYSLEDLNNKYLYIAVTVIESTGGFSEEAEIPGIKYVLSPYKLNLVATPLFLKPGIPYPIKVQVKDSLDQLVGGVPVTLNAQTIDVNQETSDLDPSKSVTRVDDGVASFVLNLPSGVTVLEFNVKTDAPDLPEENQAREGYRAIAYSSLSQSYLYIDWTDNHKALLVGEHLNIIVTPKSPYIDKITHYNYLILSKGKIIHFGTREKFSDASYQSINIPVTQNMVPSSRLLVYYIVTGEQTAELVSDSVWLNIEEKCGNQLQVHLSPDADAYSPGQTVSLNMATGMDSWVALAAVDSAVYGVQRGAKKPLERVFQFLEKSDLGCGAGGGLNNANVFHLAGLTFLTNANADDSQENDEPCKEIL
T1 sequence (P01031 678-1676 limits assumed, chain 2 of 2): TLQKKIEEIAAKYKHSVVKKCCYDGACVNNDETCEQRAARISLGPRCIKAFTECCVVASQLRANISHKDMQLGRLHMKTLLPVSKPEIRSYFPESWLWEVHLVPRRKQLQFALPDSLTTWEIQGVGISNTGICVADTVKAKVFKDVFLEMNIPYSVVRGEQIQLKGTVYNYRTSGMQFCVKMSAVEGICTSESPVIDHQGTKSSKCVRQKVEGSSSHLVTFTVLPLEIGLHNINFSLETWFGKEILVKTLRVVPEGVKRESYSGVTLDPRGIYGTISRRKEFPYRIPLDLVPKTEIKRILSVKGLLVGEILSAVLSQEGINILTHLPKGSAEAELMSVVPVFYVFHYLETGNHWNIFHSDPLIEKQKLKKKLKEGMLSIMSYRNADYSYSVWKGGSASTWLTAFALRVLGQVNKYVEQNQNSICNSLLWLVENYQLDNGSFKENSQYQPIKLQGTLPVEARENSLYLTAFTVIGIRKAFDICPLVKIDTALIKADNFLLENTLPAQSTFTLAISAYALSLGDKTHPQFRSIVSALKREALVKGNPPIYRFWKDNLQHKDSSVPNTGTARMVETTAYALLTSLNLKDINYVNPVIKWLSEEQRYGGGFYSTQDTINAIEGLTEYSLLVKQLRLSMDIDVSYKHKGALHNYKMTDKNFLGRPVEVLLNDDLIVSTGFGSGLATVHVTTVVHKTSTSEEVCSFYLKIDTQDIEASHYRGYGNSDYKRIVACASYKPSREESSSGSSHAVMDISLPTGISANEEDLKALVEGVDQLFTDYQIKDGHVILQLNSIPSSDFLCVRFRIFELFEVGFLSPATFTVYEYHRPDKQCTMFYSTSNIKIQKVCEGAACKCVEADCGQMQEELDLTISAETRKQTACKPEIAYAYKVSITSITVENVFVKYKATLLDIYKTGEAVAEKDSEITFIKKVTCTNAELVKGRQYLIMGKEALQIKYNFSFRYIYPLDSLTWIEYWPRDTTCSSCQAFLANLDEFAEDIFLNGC
As to the kind of experiment: SPR, cysteines reduced and capped with iodoacetamide; K92, cysteines reduced and capped with iodoacetamide.

Test [2] concerns the target T2, human complement component C3 (human, UniProt P01024 23-667; P01024 672-1663).
T2 construct: also called biotinylated C3
Briefly: SPR (Biacore), C3, mean of n=3. (In general: SPR reads the build-up and loss of mass on a sensor chip optically.)

The target of test [3] is T1, human complement component C5. As to the kind of experiment: SPR (Biacore), C5.
The target of test [4] is T2, human complement component C3. As to the kind of experiment: cell-based or functional assay.
Test [5] shares this target. As to the kind of experiment: cell-based or functional assay. This is another data set of the same source.
The target of test [6] is T1, human complement component C5. Briefly: cell-based or functional assay.
For test [7] the target is unchanged. As to the kind of experiment: cell-based or functional assay. This is another data set of the same source.
A further test has as its target T3, ovalbumin (UniProt P01012 2-386).
T3 sequence (looked up): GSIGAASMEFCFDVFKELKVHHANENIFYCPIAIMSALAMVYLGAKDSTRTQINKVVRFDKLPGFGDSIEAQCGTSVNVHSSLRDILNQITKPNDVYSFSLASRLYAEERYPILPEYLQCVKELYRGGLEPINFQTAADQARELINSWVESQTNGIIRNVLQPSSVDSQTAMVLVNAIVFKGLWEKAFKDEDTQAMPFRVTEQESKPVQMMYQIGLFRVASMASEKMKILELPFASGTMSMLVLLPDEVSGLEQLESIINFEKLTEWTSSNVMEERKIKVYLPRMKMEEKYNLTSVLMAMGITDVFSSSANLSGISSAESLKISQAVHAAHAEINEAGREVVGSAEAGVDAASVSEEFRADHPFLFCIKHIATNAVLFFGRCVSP
As to the kind of experiment: counter screen.

The target of test [8] is T2, human complement component C3. Briefly: counter screen. (In general: Counterscreens check selectivity or assay interference.)
Test [9] addresses T1, human complement component C5. Briefly: cell-based or functional assay. The source holds these as a separate data set.
Test [10] shares this target. Briefly: cell-based or functional assay. The source holds these as a separate data set.
The target is the same in test [11].
Test [12] has the same target. As to the kind of experiment: cell-based or functional assay. The source holds these as a separate data set.
Another test deals with T4, mouse C5 (mouse, UniProt P06684 19-674; P06684 679-1680).
T4 construct: mature; also called mouse C5 protein
T4 sequence (P06684 19-674 limits assumed, chain 1 of 2): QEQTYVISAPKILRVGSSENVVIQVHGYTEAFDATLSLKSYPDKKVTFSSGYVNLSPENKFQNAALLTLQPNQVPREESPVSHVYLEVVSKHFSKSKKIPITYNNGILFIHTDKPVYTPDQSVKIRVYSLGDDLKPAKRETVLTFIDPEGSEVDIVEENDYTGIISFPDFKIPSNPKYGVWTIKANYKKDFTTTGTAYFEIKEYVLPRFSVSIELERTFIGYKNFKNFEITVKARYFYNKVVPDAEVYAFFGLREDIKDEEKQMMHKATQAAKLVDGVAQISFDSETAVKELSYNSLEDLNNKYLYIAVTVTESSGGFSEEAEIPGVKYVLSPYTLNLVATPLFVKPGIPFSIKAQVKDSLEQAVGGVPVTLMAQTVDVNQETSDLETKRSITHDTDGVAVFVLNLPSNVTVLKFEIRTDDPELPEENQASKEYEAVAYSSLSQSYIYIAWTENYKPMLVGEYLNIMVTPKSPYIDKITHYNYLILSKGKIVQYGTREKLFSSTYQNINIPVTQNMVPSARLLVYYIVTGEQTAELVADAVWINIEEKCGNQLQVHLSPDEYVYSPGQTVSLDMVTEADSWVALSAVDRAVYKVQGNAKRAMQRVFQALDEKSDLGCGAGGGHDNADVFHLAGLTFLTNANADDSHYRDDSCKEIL
T4 sequence (P06684 679-1680 limits assumed, chain 2 of 2): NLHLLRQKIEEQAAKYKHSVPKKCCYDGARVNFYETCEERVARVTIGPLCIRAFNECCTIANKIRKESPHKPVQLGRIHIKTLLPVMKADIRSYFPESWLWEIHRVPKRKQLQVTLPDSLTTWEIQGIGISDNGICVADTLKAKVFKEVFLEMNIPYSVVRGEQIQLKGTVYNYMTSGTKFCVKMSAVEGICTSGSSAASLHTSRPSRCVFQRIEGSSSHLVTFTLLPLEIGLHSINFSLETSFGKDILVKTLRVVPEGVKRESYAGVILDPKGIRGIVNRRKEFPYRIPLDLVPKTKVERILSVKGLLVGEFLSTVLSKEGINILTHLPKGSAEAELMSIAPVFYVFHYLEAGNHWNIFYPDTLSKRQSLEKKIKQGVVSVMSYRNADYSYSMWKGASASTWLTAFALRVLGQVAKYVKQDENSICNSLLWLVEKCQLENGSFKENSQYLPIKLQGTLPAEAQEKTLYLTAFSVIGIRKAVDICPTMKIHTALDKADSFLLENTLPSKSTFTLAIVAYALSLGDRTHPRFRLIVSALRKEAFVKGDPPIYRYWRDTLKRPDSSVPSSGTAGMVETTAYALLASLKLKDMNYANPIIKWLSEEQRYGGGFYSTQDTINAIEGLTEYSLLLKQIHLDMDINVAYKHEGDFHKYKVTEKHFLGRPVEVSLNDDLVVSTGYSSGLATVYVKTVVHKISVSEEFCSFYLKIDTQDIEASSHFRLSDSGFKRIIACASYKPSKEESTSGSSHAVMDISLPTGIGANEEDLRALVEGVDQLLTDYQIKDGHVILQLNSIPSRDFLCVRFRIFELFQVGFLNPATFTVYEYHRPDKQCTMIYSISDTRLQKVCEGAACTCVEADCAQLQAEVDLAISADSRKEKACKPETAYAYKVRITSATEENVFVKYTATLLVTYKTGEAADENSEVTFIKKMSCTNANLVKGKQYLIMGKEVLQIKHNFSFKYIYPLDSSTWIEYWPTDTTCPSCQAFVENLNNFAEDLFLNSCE
Briefly: SPR single-cycle kinetics.

In test [13] the target is T1, human complement component C5. As to the kind of experiment: SPR single-cycle kinetics.
Test [14] has the same target. This is another data set of the same source.
The target of test [15] is T2, human complement component C3. As to the kind of experiment: phage ELISA, OD 630 nm, anti-M13 HRP; C3 coated directly and biotinylated C3 captured on streptavidin.
Test [16] has as its target T1, human complement component C5. As to the kind of experiment: phage ELISA, OD 630 nm, anti-M13 HRP; C5 coated directly and biotinylated C5 captured on streptavidin. On the technique in general: ELISA stands for enzyme-linked immunosorbent assay.
For test [17] the target is unchanged. Briefly: SPR, cysteines reduced and capped with iodoacetamide; K57, cysteines reduced and capped with iodoacetamide.
The target is the same in test [18]. Briefly: cell-based or functional assay. The source holds these as a separate data set.
For the next test, the target named is T5, rat C5 (Rattus norvegicus (rat), UniProt P08650 19-1681, limits assumed).
T5 construct: also called C5 protein from Rattus norvegicus (rat)
Briefly: SPR multi-cycle kinetics, rat C5 immobilised.

Test [19] deals with T1, human complement component C5. Briefly: cell-based or functional assay. The source holds these as a separate data set.
Test [20] has the same target. As to the kind of experiment: SPR multi-cycle kinetics, human C5 immobilised, mean of n=3.
For test [21] the target is unchanged. Briefly: cell-based or functional assay. This is another data set of the same source.
Another test has as its target T6, human serum albumin (human, UniProt P02768 25-609).
T6 construct: also called HSA
As to the kind of experiment: monoclonal phage ELISA.

T2 sequence (P01024 23-667 limits assumed, chain 1 of 2): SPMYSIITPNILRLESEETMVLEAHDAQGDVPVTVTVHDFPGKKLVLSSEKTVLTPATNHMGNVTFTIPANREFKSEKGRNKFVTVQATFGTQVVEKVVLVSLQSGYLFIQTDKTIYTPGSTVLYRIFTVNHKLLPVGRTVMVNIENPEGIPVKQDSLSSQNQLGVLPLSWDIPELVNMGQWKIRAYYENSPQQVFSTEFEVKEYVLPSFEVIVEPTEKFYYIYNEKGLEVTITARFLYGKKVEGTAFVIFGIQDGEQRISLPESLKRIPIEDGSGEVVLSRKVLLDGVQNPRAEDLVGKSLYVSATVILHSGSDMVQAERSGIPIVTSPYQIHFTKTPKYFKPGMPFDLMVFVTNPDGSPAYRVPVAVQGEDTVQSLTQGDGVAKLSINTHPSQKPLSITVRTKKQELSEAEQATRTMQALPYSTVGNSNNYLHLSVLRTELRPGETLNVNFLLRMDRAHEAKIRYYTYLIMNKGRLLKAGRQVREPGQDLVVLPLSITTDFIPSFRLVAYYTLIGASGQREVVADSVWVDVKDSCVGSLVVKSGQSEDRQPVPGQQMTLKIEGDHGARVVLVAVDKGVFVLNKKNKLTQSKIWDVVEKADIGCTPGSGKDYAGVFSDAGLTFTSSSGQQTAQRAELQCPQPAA
T2 sequence (P01024 672-1663 limits assumed, chain 2 of 2): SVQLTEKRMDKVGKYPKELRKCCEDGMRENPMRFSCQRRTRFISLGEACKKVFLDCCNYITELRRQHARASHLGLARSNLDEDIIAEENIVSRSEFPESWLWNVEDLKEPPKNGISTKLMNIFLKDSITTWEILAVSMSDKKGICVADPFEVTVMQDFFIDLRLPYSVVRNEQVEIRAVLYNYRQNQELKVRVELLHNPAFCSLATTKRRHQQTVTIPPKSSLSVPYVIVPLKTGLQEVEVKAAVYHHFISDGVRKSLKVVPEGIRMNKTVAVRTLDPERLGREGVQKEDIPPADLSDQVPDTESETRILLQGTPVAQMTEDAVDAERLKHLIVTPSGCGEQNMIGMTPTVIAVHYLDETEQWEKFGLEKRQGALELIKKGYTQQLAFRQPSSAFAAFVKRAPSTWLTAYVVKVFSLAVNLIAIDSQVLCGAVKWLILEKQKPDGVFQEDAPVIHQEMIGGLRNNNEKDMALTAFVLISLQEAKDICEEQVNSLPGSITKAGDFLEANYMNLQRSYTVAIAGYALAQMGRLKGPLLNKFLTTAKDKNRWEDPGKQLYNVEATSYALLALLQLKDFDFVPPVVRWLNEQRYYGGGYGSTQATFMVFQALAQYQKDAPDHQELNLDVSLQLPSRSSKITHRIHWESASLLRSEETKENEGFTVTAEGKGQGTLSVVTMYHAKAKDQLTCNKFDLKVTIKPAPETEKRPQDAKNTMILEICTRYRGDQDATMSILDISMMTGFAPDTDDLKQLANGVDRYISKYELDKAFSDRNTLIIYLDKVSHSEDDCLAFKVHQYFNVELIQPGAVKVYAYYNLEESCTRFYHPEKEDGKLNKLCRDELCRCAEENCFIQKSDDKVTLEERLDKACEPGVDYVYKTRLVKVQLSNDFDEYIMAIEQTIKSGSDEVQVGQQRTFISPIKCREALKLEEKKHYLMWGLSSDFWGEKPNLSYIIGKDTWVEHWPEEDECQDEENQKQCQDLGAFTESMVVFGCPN

B1: K92, reduced and cysteines capped with iodoacetamide (peptide)
peptide: TC(Cam)PEGWSEC(Cam)GVAIYGYEC(Cam)GRWGC(Cam)GHFLNSGPNISPYVST
notes: also called K92 (loss of disulphide bonds)
The molecule B1 returned a Kd in test [1] of 2000 nM.

B2: hC3nb1 VHH with C-terminal single-chain Fc tag (VHH, not shown: a dimerising Fc or GST)
VHH: QVQLVETGGGLVQAGGSLRLSCAASGSIFSLNAMGWFRQAPGKEREFVATINRSGGRTYYADSVKGRFTISRDNGKNMVYLQMHSLKPEDTAIYYCAAGTGWSPQTDNEYNYWGQGTQVTVSS
notes: also called hC3Nb1 WT
Molecule B2 showed a Kd in test [2] of 0.163 nM. Also, the binding result in test [3] is given as “no binding”. In test [4], the “classical pathway C5b neoepitope ELISA; IC50 (read off the curve)” value was approximately 10 nM. In test [5], the “alternative pathway C5b neoepitope ELISA; IC50 (read off the curve)” value was approximately 100 nM.
GSSGCPPGYKSGVDCSPGSECKWGCYAVDGRRYGGYGADSGVENLYFQ (Recombinant, cut out by TEV protease) [K57 knob domain peptide cleaved from the 645 Fab]: in test [6], the “Inhibition of classical pathway mediated bacterial lysis, geomean IC50” value came to 115 nM. Moreover, in [7], the “Inhibition of alternative pathway mediated bacterial lysis, average Emax” value was found to be 122% and the “Inhibition of alternative pathway mediated bacterial lysis, geomean IC50” value is 1020 nM. The binding result in the test with ovalbumin is listed as “no binding”. Also, the binding result in [8] is on record as “no binding”. In addition, in [9], the “Inhibition of alternative pathway mediated C5a release, average Emax” value is 97.8% and the “Inhibition of alternative pathway mediated C5a release, geomean IC50” value came out at 26.6 nM. Also, the “AP mediated bacterial killing assay, IC50” value in test [10] was 1220 nM. In [11], the IC50 is 4 nM and 3.2 nM and 3.5 nM and 3.6 nM; the affinity, expressed as Ki, was 1.8 nM. Also, the “Inhibition of classical pathway mediated C5a release, geomean IC50” value in test [12] turned out to be 4 nM. In addition, the binding result with mouse C5 was “no binding”. In addition, the Kd in [13] was less than 40 nM. In test [14], this molecule displayed a Kd of 1.4 nM, a koff of 0.000408 s⁻¹ and a kon of 298000 M⁻¹ s⁻¹.

B3: hC3nb1-K149 (K149 ultralong CDR-H3 in framework 3 of hC3nb1) displayed on M13 phage (bispecific antibody)
VHH: QVQLVETGGGLVQAGGSLRLSCAASGSIFSLNAMGWFRQAPGKEREFVATINRSGGRTYYADSVKGRFTISRDNGTSVLQSTKPQKSCPDGFSYRSWDDFCCPMVGRCLAPRNTYTTEFTIEAKNMVYLQMHSLKPEDTAIYYCAAGTGWSPQTDNEYNYWGQGTQVTVSS
notes: also called hC3nb1-K149 CDR-H3; not shown: poly-histidine, c-myc tag, M13 pIII
As to B3, the binding result in [15] and in test [16] was “no binding” in each case.

B4: K57, reduced and cysteines capped with iodoacetamide (peptide)
peptide: GC(Cam)PPGYKSGVDC(Cam)SPGSEC(Cam)KWGC(Cam)YAVDGRRYGGYGADSGVGS
notes: also called K57 (loss of disulphide bonds)
Molecule B4 displayed a Kd in test [17] of 76 nM.
GCPPGYKSGVDCSPGSECKWGCYAVDGRRYGGYGADSGVGS [K57chemFE knob domain peptide]: in test [18], the “alternative pathway complement ELISA (C5b deposition); IC50 (read off the curve)” value is approximately 90 nM. Besides, the binding result with rat C5 is “no binding”. For the same molecule, the “classical pathway haemolysis assay; IC50 (read off the curve)” value in test [19] is approximately 20 nM. In test [20], the Kd turned out to be 2.28 nM, the koff was found to be 0.000579 s⁻¹ and the kon came out at 260000 M⁻¹ s⁻¹. Moreover, the “classical pathway complement ELISA (C5b deposition); IC50 (read off the curve)” value in test [21] was approximately 20 nM.

B5: ultralong CDR-H3 of SEQ ID NO: 498 displayed on M13 phage (other)
chain: TTVHQQTHQDQTCPDGYTRTNYYCRRDGCGSWCNGAERQQPCIRGPCCCDLTYRTAYEYHVET
notes: not shown: poly-histidine, c-myc tag, M13 pIII
Take B5: the binding result in the test with human serum albumin is reported as “binds”.
